Patent publication US20250275560A1, “PROCESS OF MAKING GINGEROL COMPOUNDS AND THEIR USE AS FLAVOR MODIFIERS” (Firmenich SA, priority 2021, published 2025)

Experiments:
[1] = Determination of the enzyme activities for ethyl-2-oxo-4-phenylbutyrate with enzyme lysate (NADH absorption decrease at 340 nm); assay type: biochemical; conditions: enzyme lysate of recombinant RB791 cells, per wet cell mass; room temperature, pH 7.0, 0.3 mM NADH, 1 mM ethyl-2-oxo-4-phenylbutyrate; mean of at least three measurements
Description: Enzyme lysates (10% [w/v] and 20% [w/v] wet cell mass) were used to determine the enzyme activities. Enzyme lysates were prepared in TEA buffer (100 mM triethanolamine pH 7.0, 2 mM MgCl2). 0.1 g or 0.2 g wet cell mass was completely resuspended in 1 ml TEA buffer. The cells were disrupted in 2 ml reaction vessels by adding a 0.5 ml corresponding volume of glass beads at 24 Hz for 10 minutes in a vibrating mill (Retsch, MM200). The cell lysate was then sedimented in a tabletop centrifuge at 7500×g for 60 seconds. The cell-free supernatant, the enzyme lysate, was used immediately to determine the activity.
The activity was measured at room temperature in a reaction volume of 1 ml in a semi-micro cuvette (layer thickness 1 cm). The reaction mixture was composed as follows: 100 mM triethanolamine pH 7.0, 2 mM MgCl2, 0.3 mM NADH and 1 mM ethyl-2-oxo-4-phenylbutyrate (CAS No. 64920 29 2)
The reaction was started by adding 15 μL or 25 μL of enzyme lysate diluted in TEA buffer. The individual dilution was chosen for each enzyme lysate in such a way that a linear decrease in absorption at 340 nm could be recorded over a period of 30 seconds (UV-Vis spectrophotometer, Shimadzu). […] Each measurement was carried out at least three times and the mean values were determined. […] (SEQ ID NO: 1) or Weizmannia coagulans (SEQ ID NO: 3), respectively, enzyme activities of 1825 U/g and 71 U/g were determined.

[2] = Characterization of oxidoreductases with regard to reduction of [6]-gingerol to the (3R,5S)-alcohol (HPLC); assay type: biochemical; conditions: recombinant E. coli enzyme suspension, NADH, 2-propanol, 25° C., 24 hours; for Ratio: 3S,5S/3R,5S (%) - 3R,5S share / Ratio: 3S,5S/3R,5S (%) - 3S,5S share: 2 mg [6]-gingerol; for Conversion (%): conversion of [6]-gingerol
Description: The oxidoreductases with the polypeptide sequences SEQ ID NO: 1 and SEQ ID NO: 3 were examined by the following method to determine the conversion rate and diasterioselectivity by reducing [6]-gingerol to the corresponding (3R, 5S)-alcohol:
Recombinant Escherichia coli cells which carry the genes of the oxidoreductases SEQ ID NO: 1 or SEQ ID NO: 3 were cultivated as described in Example 2. To produce an enzyme suspension, 1 g wet cells were completely resuspended with TEA buffer (100 mM triethanolamine pH 7.0, 2 mM MgCl2) in a total volume of 5 mL and then mixed until homogeneous by adding 5 mL glycerol solution (80% [v/v] in TEA buffer). In the reaction setup, 2 mg [6]-gingerol per […] of this enzyme suspension were added to 160 μL KPP buffer (100 mM potassium phosphate buffer, pH 7.5, 1 mM MgCl2), together with 0.0035 g NADH and 20 μL 2-propanol. After incubating the samples at 25° C. and 1200 rpm for 24 hours, the reaction solutions were extracted with 1 ml each of […] and centrifuged. 250 μL of the extract were removed and dried. Then 1 ml acetonitrile was added and analyzed by means of HPLC. A Luna PFP (2) column (150×3 mm) from Phenomenex (Germany) was used for detecting the conversion of [6]-gingerol and the diastereomers formed.

| Molecule | enzyme activity [1] | Ratio: 3S,5S/3R,5S (%) - 3R,5S share [2] | Ratio: 3S,5S/3R,5S (%) - 3S,5S share [2] | Conversion (%) [2] |
| --- | --- | --- | --- | --- |
| SEQ ID NO: 1: KRED polypeptide isolated from Bacillus sp, 248 amino acids, expressed recombinantly in Escherichia coli (protein, listed as Bacillus sp.) MSGRVAVITGAGSGIGRETCLTFARKGEKVVVADINEEKGLETTELVKAEGGEAVFVNTDVSKFEEVEALVDQAVETYGSIDIMFNNAGIGKMGHVLSLNIEDYLHVIDVNQHGVAYGIIAAGRKMRDLDIKGVIINSASVFGYLANFGTFPYQASKGAVRMMTQNAALELSQYGIRVVGIAPGSVDTSIIQAYKDAGMTQKMKEQQMRKELIRPEAIANAVYLLTLEEADVINGSVVMLDDGYASFK | 1825 U/g | 95.5% | 4.5% | >71% |
| SEQ ID NO: 3: KRED polypeptide isolated from Weizmannia coagulans, 248 amino acids, expressed recombinantly in Escherichia coli (protein, Weizmannia coagulans, KRED polypeptide isolated from Weizmannia coagulans, 248 amino acids, expressed recombinantly in Escherichia coli) MSGRVAVITGAGSGIGWETSLTFARKGDSVVVADIDEEKGLETVELIKQEGGDAVFAKTDVSKFEEVESLVNQAVEIYGTIDVMFNNAGIGTLGHILSKKIEDYLRVIDVNQHGVAYGIIAAGRKMRELDVKGVIINTASVFGYLANFGTFPYQAAKGAVRMMTQNAALELAQYGIRVVGIAPGCVDTPIIQAYKDAGMTQKMTEQQMRKKLIRPEAIANAVYLLTLEEADAINGSVVMLDDGYASFK | 71 U/g | 98.6% | 1.4% | >84% |
